The values below come from patent publication US20100151492A1.

One experiment addresses human PD-L1 (human) (UniProt Q9NZQ7). The experiment can be described thus: cell-based or functional assay.
A further experiment has as its target human PD-1 (human) (UniProt Q15116). In words: cell-based or functional assay.

Bounds are passed on as bounds.

UniProt Q9NZQ7, sequence (Q9NZQ7 19-290 limits assumed): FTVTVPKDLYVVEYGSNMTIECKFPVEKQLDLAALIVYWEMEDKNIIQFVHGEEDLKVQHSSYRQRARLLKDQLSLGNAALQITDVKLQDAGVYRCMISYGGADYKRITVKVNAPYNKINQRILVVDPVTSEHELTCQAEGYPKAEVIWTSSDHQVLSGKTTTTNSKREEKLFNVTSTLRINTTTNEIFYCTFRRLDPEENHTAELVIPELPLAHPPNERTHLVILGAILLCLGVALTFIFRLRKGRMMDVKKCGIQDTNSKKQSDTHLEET
UniProt Q15116, sequence (Q15116 other isoform, or with tags, fused parts or gaps limits assumed): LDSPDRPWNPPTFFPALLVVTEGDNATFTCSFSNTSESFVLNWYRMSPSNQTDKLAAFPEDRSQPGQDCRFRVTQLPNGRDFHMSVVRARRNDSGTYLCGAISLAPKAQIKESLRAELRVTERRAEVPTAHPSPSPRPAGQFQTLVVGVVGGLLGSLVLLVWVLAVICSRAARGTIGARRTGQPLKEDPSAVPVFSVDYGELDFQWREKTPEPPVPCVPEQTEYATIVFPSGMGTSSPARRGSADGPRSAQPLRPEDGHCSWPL

In the experiment with human PD-L1 (human), “Monoclonal antibody to human PD-L1 (29E.2A3, mouse IgG2b)” returned an expansion of HCV-specific T cells (frequency of CFSE low tetramer labeled CD8+ T cells after 6 days) of 4 fold, a fold increase in tetramer+ cells (6-day CFSE proliferation of B*4201 TL9-specific CD8+ T cells) of 10.3 fold, a fold increase in the frequency of EBV or CMV-specific CD8 T cells (6-day CFSE proliferation) of under 3.5 fold and a percentage of B*4201 TL9-specific CD8+ T cells after 6-day stimulation with peptide of 12.4%.

On to “Monoclonal antibody to human PD-1 (EH12, mouse IgG1)”, for which, in the experiment with human PD-1 (human), the expansion of HCV-specific T cells (frequency of CFSE low tetramer labeled CD8+ T cells after 6 days) was 4 fold.
